Positions count from the first letter of the chain named. Values belong to the binder of their own block, whether it stands above or below them.
Columns and labels:
[1] = target: T1, Human PD-L1 full-length (human, UniProt Q9NZQ7 19-290); assay: flow cytometry, CHOK1SV/human PD-L1 cells
T1 construct: also called PDL01021; CHOK1SV/huPDL1

[2] = target: T2, human CD40 full-length (human, UniProt P25942 21-277); assay: flow cytometry, CHOK1SV/human CD40 cells
T2 construct: Also used for CD40 of Daudi cells, of CD40-expressing HEK293 cells and of the BPS CD40/NFkB HEK293 reporter cells where the row says so; also called CD4001012; CHOK1SV/CD40
T2 sequence (P25942 21-277): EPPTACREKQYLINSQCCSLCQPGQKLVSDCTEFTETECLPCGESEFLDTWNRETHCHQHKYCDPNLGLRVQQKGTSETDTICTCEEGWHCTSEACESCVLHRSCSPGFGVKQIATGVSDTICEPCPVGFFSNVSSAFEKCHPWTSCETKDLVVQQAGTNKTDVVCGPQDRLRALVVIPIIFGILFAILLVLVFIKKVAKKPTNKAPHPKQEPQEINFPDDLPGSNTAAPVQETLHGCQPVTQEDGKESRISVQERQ

T1 sequence (Q9NZQ7 19-290): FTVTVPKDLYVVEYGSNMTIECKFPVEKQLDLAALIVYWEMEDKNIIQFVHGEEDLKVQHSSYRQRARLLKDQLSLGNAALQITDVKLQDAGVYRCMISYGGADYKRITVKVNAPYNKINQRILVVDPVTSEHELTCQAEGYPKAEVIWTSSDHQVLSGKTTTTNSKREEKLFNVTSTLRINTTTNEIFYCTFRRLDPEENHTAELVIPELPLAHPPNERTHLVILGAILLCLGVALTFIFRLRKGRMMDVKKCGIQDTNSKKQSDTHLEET

B1: CD4001079 (bispecific antibody)
Fc-Knob x CD40_2H7: EPKSSDKTHTCPPCPAPPAAAPSVFLFPPKPKDTLMISRTPEVTCVVVDVSHEDPEVKFNWYVDGVEVHNAKTKPREEQYNSTYRVVSVLTVLHQDWLNGKEYKCAVSNKALPAPIEKTISKAKGQPREPQVYTLPPSRDELTKNQVSLWCLVKGFYPSDIAVEWESNGQPENNYKTTPPVLDSDGSFFLYSKLTVDKSRWQQGNVFSCSVMHEALHNHYTQKSLSLSPGGGGSPSDIVMTQSHKFMSTSVGDRVSITCKASQDVNTAVAWYQQKPGQSPKLLIYSASYRYTGVPDRFTGSGSGTDFTFTISSVQAEDLAVYYCQQHYSTPWTFGGGTKLEIKGGGGSGGGGSGGGGSGGGGSQVQLQQSGAELAKPGASVKMSCKASGYAFTTYWMHWVKQRPGQGLEWIGYINPTTGYTDYNQKFKDKATLTADKSSSTAYMQLSSLTSEDSAVYYCARWGLPPFAYWGQGTLVTVSA
PDL_5F9 x Fc-Hole x CD40_2H7: EVQLVESGGGLVKPGGSLRLSCAASGFTFSDYGMAWVRQAPGKGLEWVAFITSLAYIIYYADSVKGRFTISRDNAKNSLYLQMNSLRAEDTAVYYCARNYGSSPYYFDYWGQGTLVTVSSGGGGSGGGGSGGGGSGGGGSDIQMTQSPSSLSASVGDRVTITCRASQDINKFLSWYQQKPGKAPKLLIHYTSSLQPGVPSRFSGSGSGTDFTLTISSLQPEDFATYYCLQYDNLYTFGQGTKLEIKEPKSSDKTHTCPPCPAPPAAAPSVFLFPPKPKDTLMISRTPEVTCVVVDVSHEDPEVKFNWYVDGVEVHNAKTKPREEQYNSTYRVVSVLTVLHQDWLNGKEYKCAVSNKALPAPIEKTISKAKGQPREPQVYTLPPSRDELTKNQVSLSCAVKGFYPSDIAVEWESNGQPENNYKTTPPVLDSDGSFFLVSKLTVDKSRWQQGNVFSCSVMHEALHNRFTQKSLSLSPGGGGSPSDIVMTQSHKFMSTSVGDRVSITCKASQDVNTAVAWYQQKPGQSPKLLIYSASYRYTGVPDRFTGSGSGTDFTFTISSVQAEDLAVYYCQQHYSTPWTFGGGTKLEIKGGGGSGGGGSGGGGSGGGGSQVQLQQSGAELAKPGASVKMSCKASGYAFTTYWMHWVKQRPGQGLEWIGYINPTTGYTDYNQKFKDKATLTADKSSSTAYMQLSSLTSEDSAVYYCARWGLPPFAYWGQGTLVTVSA
- binding result [1]: binds

B2: CD4001184 (Fc fusion)
scFv: DIQMTQSPSSVSASVGDRVTITCRSSQSLLFSVNQKNYLAWYQQKPGKAPKLLIYWASTRESGVPDRFSGSGSGTDFTLTISSLQPEDFATYYCQHYYSYPWTFGQGTKVEIKGGGGSGGGGSGGGGSGGGGSQVQLVQSGAEVKKPGSSVKVSCKASGYTFSTSWIEWIRQAPGQGLEWIGSILPGSGSTNYNEKFKGKATFTADTSTSTAYMELSSLRSEDTAVYYCARGDDGSYVRWYFDHWGQGTLVTVSS
notes: humanized 1D5 variant; not shown: wild-type human IgG1 Fc and the Fc-to-scFv linker
- binding result [2]: binds

B4: CD4001207 (Fc fusion)
scFv: B2 scFv with I181M, N194A, A201V, F203I, T207E
notes: humanized 1D5 variant; not shown: wildtype human IgG1 Fc and its linker to the scFv
- binding result [2]: binds

B5: CD4001191 (Fc fusion)
scFv: B2 scFv with T59S, R60L, E61Q, D66S, S158T
notes: humanized 1D5 variant; not shown: wild-type human IgG1 Fc and the Fc-scFv linker
- binding result [2]: binds

B6: CD4001205 (Fc fusion)
scFv: B2 scFv with E168S, I170V, I181M, S183G, A201V, F203I, T207E
notes: as for B4
- binding result [2]: binds

B7: CD4001199 (Fc fusion)
scFv: B2 scFv with I181M, E195Q, K198Q, K200R, A201V, F203I
notes: as for B4
- binding result [2]: binds

B8: CD4001203 (Fc fusion)
scFv: B2 scFv with E168S, I170V, I181M, S183G, N194A, A201V, F203I
notes: as for B4
- binding result [2]: binds

B9: CD4001183 (Fc fusion)
scFv: B2 scFv with R60L, D66S, S158T
notes: as for B2
- binding result [2]: binds

B10: CD4001197 (Fc fusion)
scFv: B2 scFv with E168S, I170V, S183G, T207E
notes: as for B4
- binding result [2]: binds

B11: CD4001194 (Fc fusion)
scFv: B2 scFv with E168S, I170V, I181M, S183G, A201V, F203I
notes: as for B5
- binding result [2]: binds

B12: CD4001187 (Fc fusion)
scFv: B2 scFv with N194A
notes: as for B5
- binding result [2]: binds

B13: CD4001196 (Fc fusion)
scFv: B2 scFv with E168S, I170V, S183G, E195Q, K198Q, K200R
notes: as for B5
- binding result [2]: binds

B14: CD4001186 (Fc fusion)
scFv: B2 scFv with I181M, A201V, F203I
notes: as for B2
- binding result [2]: binds

Results, then the binder that gave them:

- binding result [2]: no binding (tested: 300 nM)
B3: CD4001193 (Fc fusion)
scFv: B2 scFv with S25A, T59S, R60L, E61Q, D66S, S158T
notes: as for B5

- binding result [2]: binds
B15: CD4001190 (Fc fusion)
scFv: B2 scFv with S25A, T59S, E61Q, S158T
notes: as for B5

- binding result [2]: binds
B16: CD4001181 (Fc fusion)
scFv: B2 scFv with S25A, S158T
notes: as for B2

- binding result [2]: binds
B17: CD4001195 (Fc fusion)
scFv: B2 scFv with E168S, I170V, S183G, N194A
notes: as for B5

- binding result [2]: binds
B18: CD4001206 (Fc fusion)
scFv: B2 scFv with I181M, N194A, E195Q, K198Q, K200R, A201V, F203I
notes: as for B4

- binding result [2]: binds
B19: CD4001204 (Fc fusion)
scFv: B2 scFv with E168S, I170V, I181M, S183G, E195Q, K198Q, K200R, A201V, F203I
notes: as for B4

- binding result [2]: binds
B20: CD4001182 (Fc fusion)
scFv: B2 scFv with T59S, E61Q, S158T
notes: as for B2

- binding result [2]: binds
B21: CD4001192 (Fc fusion)
scFv: B2 scFv with S25A, R60L, D66S, S158T
notes: as for B5

- binding result [2]: binds
B22: CD4001185 (Fc fusion)
scFv: B2 scFv with E168S, I170V, S183G
notes: as for B2

- binding result [2]: binds
B23: CD4001201 (Fc fusion)
scFv: B2 scFv with N194A, T207E
notes: as for B4

- binding result [1]: binds
B24: CD4001047 (bispecific antibody)
scFv-Fc-scFv chain: DIVMTQSHKFMSTSVGDRVSITCKASQDVNTAVAWYQQKPGQSPKLLIYSASYRYTGVPDRFTGSGSGTDFTFTISSVQAEDLAVYYCQQHYSTPWTFGGGTKLEIKGGGGSGGGGSGGGGSGGGGSQVQLQQSGAELAKPGASVKMSCKASGYAFTTYWMHWVKQRPGQGLEWIGYINPTTGYTDYNQKFKDKATLTADKSSSTAYMQLSSLTSEDSAVYYCARWGLPPFAYWGQGTLVTVSAEPKSSDKTHTCPPCPAPPAAAPSVFLFPPKPKDTLMISRTPEVTCVVVDVSHEDPEVKFNWYVDGVEVHNAKTKPREEQYNSTYRVVSVLTVLHQDWLNGKEYKCAVSNKALPAPIEKTISKAKGQPREPQVYTLPPSRDELTKNQVSLTCLVKGFYPSDIAVEWESNGQPENNYKTTPPVLDSDGSFFLYSKLTVDKSRWQQGNVFSCSVMHEALHNHYTQKSLSLSPGGGGSPSEVQLVESGGGLVKPGGSLRLSCAASGFTFSDYGMAWVRQAPGKGLEWVAFITSLAYIIYYADSVKGRFTISRDNAKNSLYLQMNSLRAEDTAVYYCARNYGSSPYYFDYWGQGTLVTVSSGGGGSGGGGSGGGGSGGGGSDIQMTQSPSSLSASVGDRVTITCRASQDINKFLSWYQQKPGKAPKLLIHYTSSLQPGVPSRFSGSGSGTDFTLTISSLQPEDFATYYCLQYDNLYTFGQGTKLEIK
notes: also called CD40_2H7 x hFc x PDL_5F9

- binding result [1]: binds
B25: CD4001070 (bispecific antibody)
Fc-Knob x PDL_5F9: EPKSSDKTHTCPPCPAPPAAAPSVFLFPPKPKDTLMISRTPEVTCVVVDVSHEDPEVKFNWYVDGVEVHNAKTKPREEQYNSTYRVVSVLTVLHQDWLNGKEYKCAVSNKALPAPIEKTISKAKGQPREPQVYTLPPSRDELTKNQVSLWCLVKGFYPSDIAVEWESNGQPENNYKTTPPVLDSDGSFFLYSKLTVDKSRWQQGNVFSCSVMHEALHNHYTQKSLSLSPGGGGSPSEVQLVESGGGLVKPGGSLRLSCAASGFTFSDYGMAWVRQAPGKGLEWVAFITSLAYIIYYADSVKGRFTISRDNAKNSLYLQMNSLRAEDTAVYYCARNYGSSPYYFDYWGQGTLVTVSSGGGGSGGGGSGGGGSGGGGSDIQMTQSPSSLSASVGDRVTITCRASQDINKFLSWYQQKPGKAPKLLIHYTSSLQPGVPSRFSGSGSGTDFTLTISSLQPEDFATYYCLQYDNLYTFGQGTKLEIK
CD40_2H7 x Fc-Hole x PDL_5F9: B24 scFv-Fc-scFv chain with T394S, L396A, Y435V, H463R, Y464F

Reference: US20260217833A1 (APTEVO RESEARCH AND DEVELOPMENT, published 2026)
